Patent US20110318339A1

What was measured:
[1] = target: rHuman ErbB2/Fc Chimera, CF (Cat# 1129-ER, R&D Systems) (human) (UniProt P04626); test: Multispot ECL; Fab 480 nM; blank 362
[2] = target: rHuman EGF R/Fc Chimera, CF (Cat# 344-ER, R&D Systems) (human) (UniProt P00533); test: Multispot ECL; Fab 480 nM; blank 362
[3] = target: rHuman HGF R/c-MET/Fc Chimera, CF (Cat# 358-MT/CF, R&D Systems) (human) (UniProt P08581); test: Multispot ECL; Fab 480 nM; blank 362
[4] = target: rHuman IGF-1 sR, (IGF-1 sR), CF (Cat# 391-GR, R&D Systems) (human) (UniProt P08069); test: Multispot ECL; Fab 480 nM; blank 362
[5] = target: rHuman ErbB2/Fc Chimera, CF (Cat# 1129-ER, R&D Systems) (human) (UniProt P04626); test: Multispot ECL; Fab 30 nM; blank 213
[6] = target: rHuman EGF R/Fc Chimera, CF (Cat# 344-ER, R&D Systems) (human) (UniProt P00533); test: Multispot ECL; Fab 30 nM; blank 213
[7] = target: rHuman HGF R/c-MET/Fc Chimera, CF (Cat# 358-MT/CF, R&D Systems) (human) (UniProt P08581); test: Multispot ECL; Fab 30 nM; blank 213
[8] = target: rHuman IGF-1 sR, (IGF-1 sR), CF (Cat# 391-GR, R&D Systems) (human) (UniProt P08069); test: Multispot ECL; Fab 30 nM; blank 213
[9] = target: rHuman ErbB2/Fc Chimera, CF (Cat# 1129-ER, R&D Systems) (human) (UniProt P04626); test: Multispot ECL; Fab 240 nM; blank 316
[10] = target: rHuman EGF R/Fc Chimera, CF (Cat# 344-ER, R&D Systems) (human) (UniProt P00533); test: Multispot ECL; Fab 240 nM; blank 316
[11] = target: rHuman HGF R/c-MET/Fc Chimera, CF (Cat# 358-MT/CF, R&D Systems) (human) (UniProt P08581); test: Multispot ECL; Fab 240 nM; blank 316
[12] = target: rHuman IGF-1 sR, (IGF-1 sR), CF (Cat# 391-GR, R&D Systems) (human) (UniProt P08069); test: Multispot ECL; Fab 240 nM; blank 316
[13] = target: rHuman ErbB2/Fc Chimera, CF (Cat# 1129-ER, R&D Systems) (human) (UniProt P04626); test: Multispot ECL; Fab 15 nM; blank 261
[14] = target: rHuman EGF R/Fc Chimera, CF (Cat# 344-ER, R&D Systems) (human) (UniProt P00533); test: Multispot ECL; Fab 15 nM; blank 261
[15] = target: rHuman HGF R/c-MET/Fc Chimera, CF (Cat# 358-MT/CF, R&D Systems) (human) (UniProt P08581); test: Multispot ECL; Fab 15 nM; blank 261
[16] = target: rHuman IGF-1 sR, (IGF-1 sR), CF (Cat# 391-GR, R&D Systems) (human) (UniProt P08069); test: Multispot ECL; Fab 15 nM; blank 261
[17] = target: rHuman ErbB2/Fc Chimera, CF (Cat# 1129-ER, R&D Systems) (human) (UniProt P04626); test: Multispot ECL; Fab 120 nM; blank 363
[18] = target: rHuman EGF R/Fc Chimera, CF (Cat# 344-ER, R&D Systems) (human) (UniProt P00533); test: Multispot ECL; Fab 120 nM; blank 363
[19] = target: rHuman HGF R/c-MET/Fc Chimera, CF (Cat# 358-MT/CF, R&D Systems) (human) (UniProt P08581); test: Multispot ECL; Fab 120 nM; blank 363
[20] = target: rHuman IGF-1 sR, (IGF-1 sR), CF (Cat# 391-GR, R&D Systems) (human) (UniProt P08069); test: Multispot ECL; Fab 120 nM; blank 363
[21] = target: rHuman ErbB2/Fc Chimera, CF (Cat# 1129-ER, R&D Systems) (human) (UniProt P04626); test: Multispot ECL; Fab 7.5 nM; blank 217
[22] = target: rHuman EGF R/Fc Chimera, CF (Cat# 344-ER, R&D Systems) (human) (UniProt P00533); test: Multispot ECL; Fab 7.5 nM; blank 217
[23] = target: rHuman HGF R/c-MET/Fc Chimera, CF (Cat# 358-MT/CF, R&D Systems) (human) (UniProt P08581); test: Multispot ECL; Fab 7.5 nM; blank 217
[24] = target: rHuman IGF-1 sR, (IGF-1 sR), CF (Cat# 391-GR, R&D Systems) (human) (UniProt P08069); test: Multispot ECL; Fab 7.5 nM; blank 217
[25] = target: rHuman ErbB2/Fc Chimera, CF (Cat# 1129-ER, R&D Systems) (human) (UniProt P04626); test: Multispot ECL; Fab 60 nM; blank 237
[26] = target: rHuman EGF R/Fc Chimera, CF (Cat# 344-ER, R&D Systems) (human) (UniProt P00533); test: Multispot ECL; Fab 60 nM; blank 237
[27] = target: rHuman HGF R/c-MET/Fc Chimera, CF (Cat# 358-MT/CF, R&D Systems) (human) (UniProt P08581); test: Multispot ECL; Fab 60 nM; blank 237
[28] = target: rHuman IGF-1 sR, (IGF-1 sR), CF (Cat# 391-GR, R&D Systems) (human) (UniProt P08069); test: Multispot ECL; Fab 60 nM; blank 237
[29] = target: rHuman ErbB2/Fc Chimera, CF (Cat# 1129-ER, R&D Systems) (human) (UniProt P04626); test: Multispot ECL; Fab 3.8 nM; blank 198
[30] = target: rHuman EGF R/Fc Chimera, CF (Cat# 344-ER, R&D Systems) (human) (UniProt P00533); test: Multispot ECL; Fab 3.8 nM; blank 198
[31] = target: rHuman HGF R/c-MET/Fc Chimera, CF (Cat# 358-MT/CF, R&D Systems) (human) (UniProt P08581); test: Multispot ECL; Fab 3.8 nM; blank 198
[32] = target: rHuman IGF-1 sR, (IGF-1 sR), CF (Cat# 391-GR, R&D Systems) (human) (UniProt P08069); test: Multispot ECL; Fab 3.8 nM; blank 198

- ECL signal [1]: 965
- ECL signal [2]: 877
- ECL signal [3]: 951
- ECL signal [4]: 741
- ECL signal [5]: 726
- ECL signal [6]: 585
- ECL signal [7]: 640
- ECL signal [8]: 697
- ECL signal [9]: 833
- ECL signal [10]: 690
- ECL signal [11]: 834
- ECL signal [12]: 625
- ECL signal [13]: 713
- ECL signal [14]: 584
- ECL signal [15]: 694
- ECL signal [16]: 705
- ECL signal [17]: 822
- ECL signal [18]: 658
- ECL signal [19]: 785
- ECL signal [20]: 813
- ECL signal [21]: 695
- ECL signal [22]: 582
- ECL signal [23]: 558
- ECL signal [24]: 642
- ECL signal [25]: 777
- ECL signal [26]: 679
- ECL signal [27]: 623
- ECL signal [28]: 654
- ECL signal [29]: 714
- ECL signal [30]: 511
- ECL signal [31]: 519
- ECL signal [32]: 463
B1: Fab VH6-1_IGHD3-3*01_IGHJ4*01 & V4-3_IGLJ4*01 (Fab, V domains shown)
VH: QVQLQQSGPGLVKPSQTLSLTCAISGDSVSSNSAAWNWIRQSPSRGLEWLGRTYYRSKWYNDYAVSVKSRITINPDTSKNQFSLQLNSVTPEDTAVYYCAREYYDFWSGYYTDYFDYWGQGTLVTVSS
VL: QPVLTQPTSLSASPGASARLTCTLRSGINLGSYRIFWYQQKPESPPRYLLSYYSDSSKHQGSGVPSRFSGSKDASSNAGILVISGLQSEDEADYYCMIWHSSASFVFGGGTQLIIL
